# From IntAct's records for PubMed 17403664
# B1: Differentially expressed in FDCP 6 (Mus musculus), Q8C2K1 (parent)
# chain: MALRKELLKSIWYAFTALDVEKSGKVSKSQLKVLSHNLYTVLNIPHDPVALEEHFRDDDDGPVSSQGYMPYLNKYILDKVEEGAFVKEHFDELCWTLTAKKNYRADGIGSSPLSNQDAFRLWCLFNFLSEDKYPLIMVPDEVEYLLKKLLGSLSLEMGLGELEELLAQDAQSAQTAVGLSVWQFLELFNSGRCLRGVGRDSLSMAIQEVYQELIQDVLKQGYLWKRGHLRRNWAERWFQLQPSSLCYFGSEECKEKRGTIPLDAHCCVEVLPDREGKRCMFCVKTASRTYEMSASDTRQRQEWTAAIQTAIRLQAEGKTSLHKDLKQKRREQREQRERRRAAKEEELLRLQQLQEEKERKLQELELLQEAQRQAERLLQEEEERRRSQHKELQQALEGQLREAEQARASMQAEMELKKEEAARQRQRIAELEEMQERLQEALQLEVKARRDEEAVRLAQTRLLEEEEEKLKQLMHLKEEQERYIERAQQEKQELQQEMALQSRSLQHAQQQLEEVRQNRQRADEDVEAAQRKLRQASTNVKHWNVQMNRLMHPIEPGDKRPTTSSSFTGFQPPPLARRDSSLKRLTRWGSQGNRTLSVNSSEQKSLNGGDETPILALASQEEKLDPAPGN
# partner: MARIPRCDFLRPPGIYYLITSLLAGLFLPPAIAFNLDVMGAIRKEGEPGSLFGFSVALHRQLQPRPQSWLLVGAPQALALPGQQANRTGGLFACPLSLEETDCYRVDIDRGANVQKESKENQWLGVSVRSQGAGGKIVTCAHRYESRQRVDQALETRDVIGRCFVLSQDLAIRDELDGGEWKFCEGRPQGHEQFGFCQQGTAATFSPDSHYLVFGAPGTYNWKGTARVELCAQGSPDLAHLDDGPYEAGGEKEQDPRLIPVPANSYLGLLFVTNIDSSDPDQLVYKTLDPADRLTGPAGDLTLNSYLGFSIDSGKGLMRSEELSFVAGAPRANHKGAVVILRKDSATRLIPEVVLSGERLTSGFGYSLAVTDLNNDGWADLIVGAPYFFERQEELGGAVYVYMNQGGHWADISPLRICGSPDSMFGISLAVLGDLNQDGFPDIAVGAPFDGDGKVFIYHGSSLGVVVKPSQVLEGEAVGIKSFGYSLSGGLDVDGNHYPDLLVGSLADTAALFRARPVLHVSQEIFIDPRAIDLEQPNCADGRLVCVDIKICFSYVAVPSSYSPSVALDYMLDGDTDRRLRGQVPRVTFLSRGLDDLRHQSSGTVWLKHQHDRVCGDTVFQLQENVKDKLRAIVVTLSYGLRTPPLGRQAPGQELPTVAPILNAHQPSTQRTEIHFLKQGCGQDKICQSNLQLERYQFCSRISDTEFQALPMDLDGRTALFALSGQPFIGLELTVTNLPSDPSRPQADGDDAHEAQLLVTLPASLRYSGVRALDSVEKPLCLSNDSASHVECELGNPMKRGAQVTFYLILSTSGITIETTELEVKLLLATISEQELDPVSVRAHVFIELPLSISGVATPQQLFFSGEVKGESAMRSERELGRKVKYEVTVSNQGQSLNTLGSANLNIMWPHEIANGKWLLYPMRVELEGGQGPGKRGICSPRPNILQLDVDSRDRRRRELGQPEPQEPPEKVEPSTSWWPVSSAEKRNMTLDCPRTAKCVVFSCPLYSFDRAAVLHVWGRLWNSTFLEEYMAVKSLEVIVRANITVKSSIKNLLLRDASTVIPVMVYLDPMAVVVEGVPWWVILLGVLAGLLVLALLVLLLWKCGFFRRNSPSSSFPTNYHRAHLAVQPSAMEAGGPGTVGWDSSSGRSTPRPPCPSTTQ
# Variants of: B1
# Settings: with Itga7, Q61738-6
row,Variant,effect of a mutation on the interaction
1,Y210E,decreasing interaction
